According to paper PMC8653965, “Direct Electrochemical Generation of Catalytically Competent Oxyferryl Species of Classes I and P Dye Decolorizing Peroxidases” (International Journal of Molecular Sciences, 2021):

Substrate: CCn1c(=NN=c2sc3cc(S(=O)(=O)O)ccc3n2CC)sc2cc(S(=O)(=O)O)ccc21
Assay: purified protein
Assay type: biochemical, Bacillus subtilis
Conditions: no H2O2, applied potential −0.190 V, aerobic (O2), pH 7.6, 298 K, 20 mM TRIS-HCl, 200 mM KCl, 25.0 °C

B1: BsDyP (Bacillus subtilis subsp. subtilis str. 168) (protein)
chain: IGASGLGGLAPLVQTAAKPSKKDEKEEEQIVPFYGKHQAGITTAHQTYVYFAALDVTAKDKSDIITLFRNWTSLTQMLTSGKKMSAEQRNQYLPPQDTGESADLSPSNLTVTFGFGPGFFEKDGKDRFGLKSKKPKHLAALPAMPNDNLDEKQGGGDICIQVCADDEQVAFHALRNLLNQAVGTCEVRFVNKGFLSGGKNGETPRNLFGFKDGTGNQSTKDDTLMNSIVWIQSGEPDWMTGGTYMAFRKIKMFLEVWDRSSLKDQEDTFGRRKSSGAPFGQKKETDPVKLNQIPSNSHVSLAKSTGKQILRRAFSYTEGLDPKTGYMDAGLLFISFQKNPDNQFIPMLKALSAKDALNEYTQTIGSALYACPGGCKKGEYIAQRLLES
notes: signal (Tat) peptide deleted; plasmid pVB4; expressed in E. coli Tuner; purified
**Q.** Which Km does the source give for B1 here?
**A.** 1155 ± 100 µM

**Q.** What about the kcat of the same protein?
**A.** 18 ± 1 s⁻¹

**Q.** What about the kcat/Km of the same protein?
**A.** 16000 M⁻¹ s⁻¹
